Values of other authors as cited in paper PMC8308721, “An Effective and Safe Enkephalin Analog for Antinociception” (Pharmaceutics, 2021).

Molecular target: [3H]DADLE ([D-Ala2, D-Leu5]-enkephalin)
Test: radioligand

Kd: 0.6 nM
Substance: Delta opioid receptor (from UniProt P41143)
